Laboratory results published in patent US20020045591A1, “Methods and therapeutic compositions for treating cancer” (priority 1998, published 2002).

How the values were obtained:
CHO cells = assay: Immunofluorescence localization in CHO cells; assay type: cell-based; conditions: stably transfected CHO cells, FIG. 4
Text: Immunofluorescence microscopy: Cells cultured on glass coverslips were fixed with 3% paraformaldehyde in phosphate-buffered saline (PBS) and permeabilized with 0.5% Triton X-100. CHO cells were immunofluorescently labeled as described (Levenberg S. et al. (1998) Long-range and selective autoregulation of cell-cell and cell-matrix adhesions by cadherin or integrin ligands. J. Cell Sci. 111:347-357). Nuclei were visualized using DAPI and the fluorescence was examined using a Zeiss Axiophot microscope and a x100/1.3 Planapochromat objective.

[1] = test system: β-catenin-mediated transactivation; assay: TOPFLASH/FOPFLASH luciferase transactivation in CHO cells; assay type: cell-based; conditions: TOPFLASH, FIG. 5A lanes 7-9
Description: Cell culture and transfections: CHO and SW480 human colon carcinoma cells were cultured in Dulbecco's modified Eagle's medium containing 10% fetal calf serum in an 8% CO2 incubator at 37° C. Transfections were performed using Lipofectamine (Gibco, BRL, USA) according to the manufacturer's instructions. Stably transfected CHO clones were generated by co-transfection with a plasmid encoding the puromycin resistance gene. Two days after transfection, cells were replated in the presence of 10 μg/ml puromycin (Sigma, Holon, Israel). Stable clones were isolated 2 weeks later and tested for the expression of the transgene by Western blot analysis.
Transactivation assays: CHO cells were transfected with TOPFLASH or FOPFLASH vectors (van de Wetering et al., 1997, ibid) and with pCDNA3 coding for β-galactosidase to normalize for transfection efficiency. The transfection mixture also contained either β-catenin, LEF-1 or cadherin derivatives in different combinations, as indicated. SW480 cells were transfected with TOPFLASH and cadherin derivatives. […] The reactions were stopped with 1 M Na2CO3 and the absorbance at 420 nm was determined. […] The luciferase reaction was monitored by a TD-20e luminometer (Turner, USA) and normalized for the β-galactosidase activity. […]

B1: N-cadherin tail: Cytoplasmic domain of chicken N-cadherin tagged with a Flag epitope (protein)
chain: MKRRDKERQAKQLLIDPEDDVRDNILKYDEEGGGEEDQDYDLSQLQQPDTVEPDAIKPVGIRRLDERPIHAEPQYPVRSAAPHPGDIGDFINEGLKAADNDPTAPPYDSLLVFDYEGSGSTAGSLSSLNSSSSGGEQDYDYLNDWGPRFKKLADMYGGGDD
modifications: left off: small tags and cut ends
In the case of B1, the “subcellular localization of cadherin derivative and β-catenin” value (CHO cells) is reported as “mainly localized in the nucleus” and the “luciferase activity (LEF-1 transactivation) after transfection with LEF-1 and cadherin derivative” value [1] is reported as “no specific transactivation was detected”.
